# Where a chain is given by its changes, count along the chain named. Numbers in names are those of the source.
# B1: GsHPPDm-F372A-02: nucleotide sequence encoding Gossypium hirsutum HPPD with F372A; vector DBN11739 (nucleic acid)
# DNA: ATGGTTCAAACAAATCAATCTGGTTCTGGGAATGATTTCAAGCTGGTTGGTTTCTCAAATTTTGTGCGTAGCAATCCCAAATCAGACCGCTTCACGGTCAAGAGATTCCACCACATTGAATTTTGGTGCACTGATGCCACTAATGTGGCGAGGAGGTTTTCATGGGGTTTAGGGATGCAGTTCGTCGCCAAGAGTGACCTCTCCACAGGAAATTTGACGCATGCAAGCTACCTGCTGCGGAGCCGCGACTTGAATTTCCTGTTTACAGCACCATATTCACCCAGTATTGCAGTTGCTCAAAACCTTTCGCCACAAAGCACTGCTTCCATACCTTCATTTGATCACTCGCTTTGTCGGTCCTTTGCTGCAACACATGGACTTGGCGTCAGAGCAATTGCCATCGAGGTGGACGACGCCGAAACTGCCTTCACCACGAGCGTGACACATGGCGCGCTCCCTTTTTGTCCACCAACACCACTAGGAGATGTGGCTACAATTGCTGAAGTTAAATTATATGGTGATGTTGTGCTCAGATATGTTTCTTACACCACAACCATCAACTCCGACCATGATTTTCTGCCTGGTTTTGAGAAGATTGAAGATACTCTATCGTATCCTTTGGATTATGGCCTGCGTCGGCTCGATCATGCTGTTGGCAACGTACCTGAATTAGGTCCTGCTGTATCTTATGTGAAATCTTTTACTGGGTTCCATGAGTTTGCAGAGTTCACCGCTGAGGATGTAGGAACAAGTGAATCTGGGCTGAACTCAGTTGTTTTGGCCAACAATGAGGAAATGGTCCTCTTACCAATGAACGAGCCGGTGTTCGGCACTAAGCGCAAATCTCAAATACAGACCTACTTGGAGCACAATGAAGGAGCTGGTGTGCAGCACCTCGCCCTCGTCTCGGAGGACATCTTCAAAACTTTAAGGGAGATGAGGAAACGATCCTTTGTGGGAGGATTTGAATTCATGCCTTCTCCGCCGCCGACATACTACAAGAAGCTCAAGCAGCGCGCGGGGGACATTTTGTCTGATGAGCAGATCAAGGAGTGTGAAGAGCTTGGGATTCTTGTTGATAGAGATGATCAAGGAACGCTTCTGCAGATAGCCACCAAGCCCGTCGGCGACCGGCCTACTATATTCATTGAGATCATCCAGAGAATTGGTTGCATGGTGAAGGATGAAGAAGGGAAACAGTACCAGAAGGGCGGCTGCGGCGGGTTTGGAAAAGGAAACTTCAGTGAGCTGTTTAAAAGTATAGAGGAGTATGAAAAGAGCTTGGAAGCAAAACAATCACAAAATCCATGA
# modifications: GsHPPDm-F372A-02 Nucleotide Sequence
# notes: vector DBN11739
# B2: GsHPPDm-F383W-02: nucleotide sequence encoding Gossypium hirsutum HPPD with F383W; vector DBN11740 (nucleic acid)
# DNA: B1 DNA with G1111T, C1112T, C1113T, T1145G, C1146G
# modifications: GsHPPDm-F383W-02 Nucleotide Sequence
# notes: vector DBN11740
# How the values were obtained:
# Assay type in all cases: in vivo
# [1] = tested on: Arabidopsis thaliana T1 plants; assay: Isoxaflutole tolerance of transgenic Arabidopsis thaliana T1 plants (spray, bleached leaf area grade, damage score); design: Scores (pesticide damage): scale not given here; conditions: spray, Arabidopsis thaliana T1 plants; for Classification and statistics of the grade of pesticide damage: Grade 0 (number of plants) / Classification and statistics of the grade of pesticide damage: Grade 1 (number of plants) / Classification and statistics of the grade of pesticide damage: Grade 2 (number of plants) / Classification and statistics of the grade of pesticide damage: Grade 3 (number of plants): 16 plants
# Method in brief: (§1)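 Damage was assessed by bleaching grade (0 none; 1 <50%; 2 >50%; 3 100% of leaf area) one week after spraying. Sprays on 18-day-old T1 and wild-type plants used field-rate multiples: topramezone 25–200, isoxaflutole 35–280, mesotrione 52.5–420 g ai/ha.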
# [2] = tested on: Arabidopsis thaliana T1 plants; assay: Topramezone tolerance of transgenic Arabidopsis thaliana T1 plants (spray, bleached leaf area grade, damage score); conditions: 7 DAT, Table 4; for Classification and statistics of the grade of pesticide damage: Grade 0 / Classification and statistics of the grade of pesticide damage: Grade 1 / Classification and statistics of the grade of pesticide damage: Grade 2 / Classification and statistics of the grade of pesticide damage: Grade 3: number of plants; for Scores: pesticide damage score 0-100
# Method in brief: as §1
# [3] = tested on: Arabidopsis thaliana T1 plants; assay: Mesotrione tolerance of transgenic Arabidopsis thaliana T1 plants (spray, bleached leaf area grade, damage score); design: Scores: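 damage score 0-100 computed as Σ(N×S)/(T×M)×100 over grades 0-3 with higher meaning more damage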; conditions: Arabidopsis thaliana T1 plants; for Grade 0 (classification and statistics of the grade of pesticide damage; number of plants) / Grade 1 (classification and statistics of the grade of pesticide damage; number of plants) / Grade 2 (classification and statistics of the grade of pesticide damage; number of plants) / Grade 3 (classification and statistics of the grade of pesticide damage; number of plants): 16 plants
# Method in brief: as §1
# [4] = isoxaflutole 35 g ai/ha (0.5x field concentration)
# [5] = isoxaflutole 70 g ai/ha (1x field concentration)
Molecule,"Resistance evaluation [1, 4]","Scores (pesticide damage) [1, 4]","Classification and statistics of the grade of pesticide damage: Grade 0 (number of plants) [1, 4]","Classification and statistics of the grade of pesticide damage: Grade 1 (number of plants) [1, 4]","Classification and statistics of the grade of pesticide damage: Grade 2 (number of plants) [1, 4]","Classification and statistics of the grade of pesticide damage: Grade 3 (number of plants) [1, 4]","Resistance evaluation [1, 5]","Scores (pesticide damage) [1, 5]","Classification and statistics of the grade of pesticide damage: Grade 0 (number of plants) [1, 5]","Classification and statistics of the grade of pesticide damage: Grade 1 (number of plants) [1, 5]","Classification and statistics of the grade of pesticide damage: Grade 2 (number of plants) [1, 5]","Classification and statistics of the grade of pesticide damage: Grade 3 (number of plants) [1, 5]",Classification and statistics of the grade of pesticide damage: Grade 0 ([2]; topramezone 25 g ai/ha (1×)),Classification and statistics of the grade of pesticide damage: Grade 1 ([2]; topramezone 25 g ai/ha (1×)),Classification and statistics of the grade of pesticide damage: Grade 2 ([2]; topramezone 25 g ai/ha (1×)),Classification and statistics of the grade of pesticide damage: Grade 3 ([2]; topramezone 25 g ai/ha (1×)),Classification and statistics of the grade of pesticide damage: Grade 0 ([2]; topramezone 100 g ai/ha (4×)),Classification and statistics of the grade of pesticide damage: Grade 1 ([2]; topramezone 100 g ai/ha (4×)),Classification and statistics of the grade of pesticide damage: Grade 2 ([2]; topramezone 100 g ai/ha (4×)),Classification and statistics of the grade of pesticide damage: Grade 3 ([2]; topramezone 100 g ai/ha (4×)),also measured
B1,Moderately,33,3,10,3,0,Non-resistant,100,0,0,0,16,16,0,0,0,0,0,0,16,Scores ([2]; topramezone 25 g ai/ha (1×)): 0; Scores ([2]; topramezone 100 g ai/ha (4×)): 100; Resistance evaluation ([2]; topramezone 25 g ai/ha (1×)): highly; Resistance evaluation ([2]; topramezone 100 g ai/ha (4×)): non-resistant (non-resistant plants (scores 68-100)); Resistance evaluation ([3]; mesotrione 52.5 g ai/ha): Poorly resistant; Scores ([3]; mesotrione 52.5 g ai/ha): 54; Grade 0 (classification and statistics of the grade of pesticide damage; number of plants) ([3]; mesotrione 52.5 g ai/ha): 0; Grade 1 (classification and statistics of the grade of pesticide damage; number of plants) ([3]; mesotrione 52.5 g ai/ha): 8; Grade 2 (classification and statistics of the grade of pesticide damage; number of plants) ([3]; mesotrione 52.5 g ai/ha): 6; Grade 3 (classification and statistics of the grade of pesticide damage; number of plants) ([3]; mesotrione 52.5 g ai/ha): 2; Resistance evaluation ([3]; mesotrione 105 g ai/ha): Non-resistant; Scores ([3]; mesotrione 105 g ai/ha): 100; Grade 0 (classification and statistics of the grade of pesticide damage; number of plants) ([3]; mesotrione 105 g ai/ha): 0; Grade 1 (classification and statistics of the grade of pesticide damage; number of plants) ([3]; mesotrione 105 g ai/ha): 0; Grade 2 (classification and statistics of the grade of pesticide damage; number of plants) ([3]; mesotrione 105 g ai/ha): 0; Grade 3 (classification and statistics of the grade of pesticide damage; number of plants) ([3]; mesotrione 105 g ai/ha): 16
B2,Non-resistant,73,0,2,9,5,Non-resistant,100,0,0,0,16,0,3,9,4,0,0,0,16,Scores ([2]; topramezone 25 g ai/ha (1×)): 69; Scores ([2]; topramezone 100 g ai/ha (4×)): 100; Resistance evaluation ([2]; topramezone 25 g ai/ha (1×)): non-resistant (non-resistant plants (scores 68-100)); Resistance evaluation ([2]; topramezone 100 g ai/ha (4×)): non-resistant (non-resistant plants (scores 68-100)); Resistance evaluation ([3]; mesotrione 52.5 g ai/ha): Non-resistant; Scores ([3]; mesotrione 52.5 g ai/ha): 100; Grade 0 (classification and statistics of the grade of pesticide damage; number of plants) ([3]; mesotrione 52.5 g ai/ha): 0; Grade 1 (classification and statistics of the grade of pesticide damage; number of plants) ([3]; mesotrione 52.5 g ai/ha): 0; Grade 2 (classification and statistics of the grade of pesticide damage; number of plants) ([3]; mesotrione 52.5 g ai/ha): 0; Grade 3 (classification and statistics of the grade of pesticide damage; number of plants) ([3]; mesotrione 52.5 g ai/ha): 16; Resistance evaluation ([3]; mesotrione 105 g ai/ha): Non-resistant; Scores ([3]; mesotrione 105 g ai/ha): 100; Grade 0 (classification and statistics of the grade of pesticide damage; number of plants) ([3]; mesotrione 105 g ai/ha): 0; Grade 1 (classification and statistics of the grade of pesticide damage; number of plants) ([3]; mesotrione 105 g ai/ha): 0; Grade 2 (classification and statistics of the grade of pesticide damage; number of plants) ([3]; mesotrione 105 g ai/ha): 0; Grade 3 (classification and statistics of the grade of pesticide damage; number of plants) ([3]; mesotrione 105 g ai/ha): 16

# Source: US20250043302A1, “MUTATED HYDROXYPHENYLPYRUVATE DIOXYGENASE POLYPEPTIDE, AND CODING GENE AND USE THEREOF” (BEIJING DABEINONG BIOTECHNOLOGY CO., LTD., priority 2021, published 2025)
